Data published in PMC9061753, “Mre11-Rad50 oligomerization promotes DNA double-strand break repair” (Nature Communications, 2022).
Where a chain is given by its changes, count along the chain named. Names may count otherwise.

Experiments:
[1] = target: the molecule itself; assay: negative staining TEM; purified complexes without DNA; 25 mM Tris acetate pH 7.5, 1 mM DTT, 120 mM KCl; 4 °C, or 30 °C for 30 min with 5 mM Mg2+, 1 mM Mn2+, 1 mM ATPγS; oligomers stable at 150 mM KCl or NaCl; step: M2R2 to (M2R2)n
[2] = target: the molecule itself; assay: negative staining TEM; proteins on linear or circular plasmid DNA, 30 °C 30 min, Mg2+, Mn2+, ATPγS (or ATP), 30-50 mM KCl; 50-100 nM MR; oligomerization on DNA
Mre11-Rad50 (MRwt) [3] = target: T1, Mre11-Rad50 (MRwt) (S. cerevisiae, UniProt P32829;P12753 1-692;1-1312); assay: EMSA; ATPgS, 5 mM Mg2+, 30 mM NaCl; mean of the 3 visible of 4 replicates (20.5, 22.96, 22.55); apparent; Oligo EMSA: 25 mM Tris acetate pH 7.5, 1 mM DTT, 0.25 mg/ml BSA, 5 mM Mg acetate, 1 mM ATPgS, 30 mM NaCl, 30 C 15 min, 100 nM bp DNA; plasmid EMSA: 80 mM KCl, plus 1 mM MnCl2, 30 C 1 h; mass photometry 25 mM KCl; details: protein: recombinant; tags: Mre11-6xHis; Rad50 untagged; chain copies: 2;2; label: 3'-32P on strand 1 (terminal transferase); blunt before 3' labeling
T1 sequence (P32829 whole entry, one chain of several): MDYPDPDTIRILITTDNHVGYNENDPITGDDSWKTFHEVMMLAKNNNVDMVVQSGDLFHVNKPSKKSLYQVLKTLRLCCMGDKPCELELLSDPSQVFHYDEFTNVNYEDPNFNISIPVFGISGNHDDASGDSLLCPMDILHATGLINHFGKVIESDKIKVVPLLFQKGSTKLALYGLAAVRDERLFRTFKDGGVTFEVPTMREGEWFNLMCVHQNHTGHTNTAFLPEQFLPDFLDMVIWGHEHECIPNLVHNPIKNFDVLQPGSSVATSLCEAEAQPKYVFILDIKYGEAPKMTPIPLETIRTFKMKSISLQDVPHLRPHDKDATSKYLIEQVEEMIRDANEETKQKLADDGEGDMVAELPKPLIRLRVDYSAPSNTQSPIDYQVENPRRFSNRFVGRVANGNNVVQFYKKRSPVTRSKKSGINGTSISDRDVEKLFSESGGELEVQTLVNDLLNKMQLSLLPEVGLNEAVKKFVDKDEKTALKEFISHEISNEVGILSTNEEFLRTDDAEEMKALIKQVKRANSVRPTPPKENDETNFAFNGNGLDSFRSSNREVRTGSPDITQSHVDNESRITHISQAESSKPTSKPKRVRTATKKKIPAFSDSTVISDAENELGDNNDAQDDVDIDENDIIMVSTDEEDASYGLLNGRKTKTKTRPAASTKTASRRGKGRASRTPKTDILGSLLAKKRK

Mre11-Rad50 (MRwt) [4] = target: T1, Mre11-Rad50 (MRwt); assay: EMSA; ATPgS, 5 mM Mg2+, 30 mM NaCl; mean of the 3 visible of 4 replicates (14.03, 13.92, 12.72); apparent; Oligo EMSA: 25 mM Tris acetate pH 7.5, 1 mM DTT, 0.25 mg/ml BSA, 5 mM Mg acetate, 1 mM ATPgS, 30 mM NaCl, 30 C 15 min, 100 nM bp DNA; plasmid EMSA: 80 mM KCl, plus 1 mM MnCl2, 30 C 1 h; mass photometry 25 mM KCl; details: protein: recombinant; tags: Mre11-6xHis; Rad50 untagged; chain copies: 2;2; label: 3'-32P on strand 1 (terminal transferase); blunt before 3' labeling
Mre11-Rad50 (MRwt) [5] = target: T1, Mre11-Rad50 (MRwt); assay: mass photometry; 25 mM KCl; Oligo EMSA: 25 mM Tris acetate pH 7.5, 1 mM DTT, 0.25 mg/ml BSA, 5 mM Mg acetate, 1 mM ATPgS, 30 mM NaCl, 30 C 15 min, 100 nM bp DNA; plasmid EMSA: 80 mM KCl, plus 1 mM MnCl2, 30 C 1 h; mass photometry 25 mM KCl; details: protein: recombinant; tags: Mre11-6xHis; Rad50 untagged; chain copies: 2;2; bottom as printed is a circular permutation of the complement of top (possible printing error); stated 73 bp
MRho [6] = target: T2, MRho (S. cerevisiae, UniProt P32829;P12753 1-692;1-1312, N121A;D124N;Rad50:); assay: mass photometry; 25 mM KCl; two dimers per DNA detected; Oligo EMSA: 25 mM Tris acetate pH 7.5, 1 mM DTT, 0.25 mg/ml BSA, 5 mM Mg acetate, 1 mM ATPgS, 30 mM NaCl, 30 C 15 min, 100 nM bp DNA; plasmid EMSA: 80 mM KCl, plus 1 mM MnCl2, 30 C 1 h; mass photometry 25 mM KCl; details: protein: recombinant; tags: Mre11-6xHis; Rad50 untagged; chain copies: 2;2; bottom as printed is a circular permutation of the complement of top (possible printing error); stated 73 bp
T2 sequence (P32829 whole entry, stated change not applied, one chain of several): as the sequence (P32829 whole entry, one chain of several) above

MRho [7] = target: T2, MRho; assay: mass photometry; 25 mM KCl; Oligo EMSA: 25 mM Tris acetate pH 7.5, 1 mM DTT, 0.25 mg/ml BSA, 5 mM Mg acetate, 1 mM ATPgS, 30 mM NaCl, 30 C 15 min, 100 nM bp DNA; plasmid EMSA: 80 mM KCl, plus 1 mM MnCl2, 30 C 1 h; mass photometry 25 mM KCl; details: protein: recombinant, tags: Mre11-6xHis, Rad50 untagged, chain copies: 2;2
Mre11-Rad50-Xrs2 (MRX) = Mre11-Rad50-Xrs2 (MRX) (S. cerevisiae, UniProt P32829;P12753;P33301 1-692;1-1312;1-854); assay: as above; details: protein: recombinant; tags: His-Mre11; Rad50 untagged; Xrs2-FLAG; chain copies: 2;2;1; blunt
Chain of Mre11-Rad50-Xrs2 (MRX) (P32829 whole entry, chain 1 of 2): as the sequence (P32829 whole entry, one chain of several) above
Chain of Mre11-Rad50-Xrs2 (MRX) (P33301 whole entry, chain 3 of 2): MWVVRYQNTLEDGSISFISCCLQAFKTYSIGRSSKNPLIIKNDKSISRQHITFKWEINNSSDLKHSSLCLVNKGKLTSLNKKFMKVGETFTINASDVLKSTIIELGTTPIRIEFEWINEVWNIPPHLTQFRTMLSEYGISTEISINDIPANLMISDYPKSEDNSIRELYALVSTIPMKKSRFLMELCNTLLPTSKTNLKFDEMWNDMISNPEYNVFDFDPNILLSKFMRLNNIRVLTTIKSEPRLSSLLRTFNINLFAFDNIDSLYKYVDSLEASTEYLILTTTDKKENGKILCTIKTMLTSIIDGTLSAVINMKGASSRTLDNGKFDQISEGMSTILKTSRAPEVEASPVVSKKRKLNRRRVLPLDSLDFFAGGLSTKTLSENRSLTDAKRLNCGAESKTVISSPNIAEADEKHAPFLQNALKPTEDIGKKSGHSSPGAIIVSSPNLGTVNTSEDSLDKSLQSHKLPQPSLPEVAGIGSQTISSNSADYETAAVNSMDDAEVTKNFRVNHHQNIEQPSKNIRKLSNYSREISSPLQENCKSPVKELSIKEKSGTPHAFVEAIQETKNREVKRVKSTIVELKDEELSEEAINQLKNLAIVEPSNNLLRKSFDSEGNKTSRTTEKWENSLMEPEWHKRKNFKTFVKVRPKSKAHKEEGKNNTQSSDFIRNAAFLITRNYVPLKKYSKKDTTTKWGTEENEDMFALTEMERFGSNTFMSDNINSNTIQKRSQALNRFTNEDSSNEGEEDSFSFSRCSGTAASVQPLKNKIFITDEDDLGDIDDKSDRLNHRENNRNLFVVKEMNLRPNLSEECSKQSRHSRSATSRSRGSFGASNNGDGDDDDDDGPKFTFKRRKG

Mre11-Rad50 (MRwt) [8] = target: T1, Mre11-Rad50 (MRwt); assay: mass photometry; 25 mM KCl; two dimers per DNA detected; Oligo EMSA: 25 mM Tris acetate pH 7.5, 1 mM DTT, 0.25 mg/ml BSA, 5 mM Mg acetate, 1 mM ATPgS, 30 mM NaCl, 30 C 15 min, 100 nM bp DNA; plasmid EMSA: 80 mM KCl, plus 1 mM MnCl2, 30 C 1 h; mass photometry 25 mM KCl; details: protein: recombinant; tags: Mre11-6xHis; Rad50 untagged; chain copies: 2;2; blunt
MRlo = MRlo (S. cerevisiae, UniProt P32829;P12753 1-692;1-1312, L116A;I119A;T127A;L128A;Rad50:); assay: mass photometry; 25 mM KCl, 5 nM protein, 2.5 nM DNA; Oligo EMSA: 25 mM Tris acetate pH 7.5, 1 mM DTT, 0.25 mg/ml BSA, 5 mM Mg acetate, 1 mM ATPgS, 30 mM NaCl, 30 C 15 min, 100 nM bp DNA; plasmid EMSA: 80 mM KCl, plus 1 mM MnCl2, 30 C 1 h; mass photometry 25 mM KCl; details: protein: recombinant; tags: Mre11-6xHis; Rad50 untagged; chain copies: 2;2; 1-nt 5' overhangs as printed
Chain of MRlo (P32829 whole entry, stated change not applied, one chain of several): as the sequence (P32829 whole entry, one chain of several) above

Mre11-Rad50 (MRwt) [9] = target: T1, Mre11-Rad50 (MRwt); assay: EMSA; ATPgS, 5 mM Mg2+, 30 mM NaCl; mean of the 2 visible of 3 replicates (7.787, 6.135); apparent; Oligo EMSA: 25 mM Tris acetate pH 7.5, 1 mM DTT, 0.25 mg/ml BSA, 5 mM Mg acetate, 1 mM ATPgS, 30 mM NaCl, 30 C 15 min, 100 nM bp DNA; plasmid EMSA: 80 mM KCl, plus 1 mM MnCl2, 30 C 1 h; mass photometry 25 mM KCl; details: protein: recombinant; tags: Mre11-6xHis; Rad50 untagged; chain copies: 2;2; label: 3'-32P; blunt before 3' labeling

B1: S. cerevisiae Rad50, wild type, untagged (co-expressed subunit) (natural protein, UniProt P12753 1-1312, looked up)
chain: MSAIYKLSIQGIRSFDSNDRETIEFGKPLTLIVGMNGSGKTTIIECLKYATTGDLPPNSKGGVFIHDPKITGEKDIRAQVKLAFTSANGLNMIVTRNIQLLMKKTTTTFKTLEGQLVAINNSGDRSTLSTRSLELDAQVPLYLGVPKAILEYVIFCHQEDSLWPLSEPSNLKKKFDEIFQAMKFTKALDNLKSIKKDMSVDIKLLKQSVEHLKLDKDRSKAMKLNIHQLQTKIDQYNEEVSEIESQLNEITEKSDKLFKSNQDFQKILSKVENLKNTKLSISDQVKRLSNSIDILDLSKPDLQNLLANFSKVLMDKNNQLRDLETDISSLKDRQSSLQSLSNSLIRRQGELEAGKETYEKNRNHLSSLKEAFQHKFQGLSNIENSDMAQVNHEMSQFKAFISQDLTDTIDQFAKDIQLKETNLSDLIKSITVDSQNLEYNKKDRSKLIHDSEELAEKLKSFKSLSTQDSLNHELENLKTYKEKLQSWESENIIPKLNQKIEEKNNEMIILENQIEKFQDRIMKTNQQADLYAKLGLIKKSINTKLDELQKITEKLQNDSRIRQVFPLTQEFQRADLEMDFQKLFINMQKNIAINNKKMHELDRRYTNALYNLNTIEKDLQDNQKSKEKVIQLLSENLPEDCTIDEYNDVLEETELSYKTALENLKMHQTTLEFNRKALEIAERDSCCYLCSRKFENESFKSKLLQELKTKTDANFEKTLKDTVQNEKEYLHSLRLLEKHIITLNSINEKIDNSQKCLEKAKEETKTSKSKLDELEVDSTKLKDEKELAESEIRPLIEKFTYLEKELKDLENSSKTISEELSIYNTSEDGIQTVDELRDQQRKMNDSLRELRKTISDLQMEKDEKVRENSRMINLIKEKELTVSEIESSLTQKQNIDDSIRSKRENINDIDSRVKELEARIISLKNKKDEAQSVLDKVKNERDIQVRNKQKTVADINRLIDRFQTIYNEVVDFEAKGFDELQTTIKELELNKAQMLELKEQLDLKSNEVNEEKRKLADSNNEEKNLKQNLELIELKSQLQHIESEISRLDVQNAEAERDKYQEESLRLRTRFEKLSSENAGKLGEMKQLQNQIDSLTHQLRTDYKDIEKNYHKEWVELQTRSFVTDDIDVYSKALDSAIMKYHGLKMQDINRIIDELWKRTYSGTDIDTIKIRSDEVSSTVKGKSYNYRVVMYKQDVELDMRGRCSAGQKVLASIIIRLALSETFGANCGVIALDEPTTNLDEENIESLAKSLHNIINMRRHQKNFQLIVITHDEKFLGHMNAAAFTDHFFKVKRDDRQKSQIEWVDINRVTY
notes: Rad50, S. cerevisiae, untagged; also called Rad50^wt; untagged Rad50; source: Sf9, co-expressed with Mre11-6xHis (and FLAG-Xrs2)
B1: binds [1].

B2: S. cerevisiae Rad50, wild type, expressed and purified alone (natural protein, UniProt P12753 1-1312, looked up)
chain: B1 chain
notes: Rad50, S. cerevisiae; also called Rad50^wt
B2: binds [2].

B3: S. cerevisiae Rad50^N121A/D124N, expressed and purified alone (natural protein, UniProt P12753 1-1312, looked up)
chain: B1 chain with N121A, D124N
notes: Rad50, S. cerevisiae; also called Rad50^ho
B3: binds [2].

B4: 20 bp EMSA (PC216_20 nt) (dsDNA)
DNA 1: CGTACTCCACCTCATGCATC
DNA 2: GATGCATGAGGTGGAGTACG
modifications: biotin position marked on a T of strand 2 in table
Binder B4 has a Kd (Mre11-Rad50 (MRwt) [3]) of about 22 nM.

B5: 31 bp EMSA (X12-3SC) (dsDNA)
DNA 1: TTGCTAGGACATGCTGTCTAGAGACTATCGC
DNA 2: GCGATAGTCTCTAGACAGCATGTCCTAGCAA
In the case of B5, the Kd (Mre11-Rad50 (MRwt) [4]) is reported as about 13.6 nM.

B6: 73 bp mass photometry (dsDNA)
DNA 1: GACCACCCTTTTTGATATAATATACCTATATCAATGGGCTCCCACGCAATTCGGCAGATACGTTCTGAGGGAA
DNA 2: GCCCATTGATATAGGTATATTATATCAAAAAGGGTGGTCTTCCCTCAGAACGTATCTGCCGAATTGCGTGGGA
B6: binds (Mre11-Rad50 (MRwt) [5]); binds (MRho [6]).

B7: 106 bp mass photometry (dsDNA)
DNA 1: TTAGCTCCTACGCGGAACGAGACCTACCAATATACCTATATCAATGGCCTCCCACGCATAAGCCTCGGGAGCTCGACCATCTGGTCTCATCGGACACTTAGGACCA
DNA 2: TGGTCCTAAGTGTCCGATGAGACCAGATGGTCGAGCTCCCGAGGCTTATGCGTGGGAGGCCATTGATATAGGTATATTGGTAGGTCTCGTTCCGCGTAGGAGCTAA
B7: binds (MRho [7]; blunt); binds (Mre11-Rad50-Xrs2 (MRX)); binds (Mre11-Rad50 (MRwt) [8]).

B8: 197 bp mass photometry (dsDNA)
DNA 1: GCTTCGTATGTTTCTCCTGCTTATCACCTTCTTGAAGGCTTCCCATTCATTCAGGAACCGCCTTCTGGTGATTTGCAAGAACGCGTACTTATTCGCCACCATGATTATGACCAGTGTTTCCAGTCCGTTCAGTTGTTGCAGTGGAATAGTCAGGTTAAATTTAATGTGACCGTTTATCGCAATCTGCCGACCACTCG
DNA 2: GCGAGTGGTCGGCAGATTGCGATAAACGGTCACATTAAATTTAACCTGACTATTCCACTGCAACAACTGAACGGACTGGAAACACTGGTCATAATCATGGTGGCGAATAAGTACGCGTTCTTGCAAATCACCAGAAGGCGGTTCCTGAATGAATGGGAAGCCTTCAAGAAGGTGATAAGCAGGAGAAACATACGAAG
B8: binds (MRho [7]; 1-nt 5' overhangs as printed); no binding (MRlo).

B9: 70 bp EMSA (PC210/PC211) (dsDNA)
DNA 1: GTAAGTGCCGCGGTGCGGGTGCCAGGGCGTGCCCTTGGGCTCCCCGGGCGCGTACTCCACCTCATGCATC
DNA 2: GATGCATGAGGTGGAGTACGCGCCCGGGGAGCCCAAGGGCACGCCCTGGCACCCGCACCGCGGCACTTAC
modifications: biotin positions marked in table
B9 was tested, and the Kd (Mre11-Rad50 (MRwt) [9]) was about 6.96 nM.
